{"source": "paper PMC7970000", "origin": "cited, not measured here", "key": {"[1]": {"target": "SNX3-retromer complex (Homo sapiens) (UniProt O60493)", "sequence (O60493 2-162, chain 1 of 2)": "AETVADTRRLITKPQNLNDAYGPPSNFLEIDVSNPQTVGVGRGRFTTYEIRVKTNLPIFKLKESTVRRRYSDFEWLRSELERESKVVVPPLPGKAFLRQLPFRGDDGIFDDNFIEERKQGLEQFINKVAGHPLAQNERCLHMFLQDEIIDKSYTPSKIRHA", "sequence (O75436 whole entry, chain 2 of 2, further chain)": "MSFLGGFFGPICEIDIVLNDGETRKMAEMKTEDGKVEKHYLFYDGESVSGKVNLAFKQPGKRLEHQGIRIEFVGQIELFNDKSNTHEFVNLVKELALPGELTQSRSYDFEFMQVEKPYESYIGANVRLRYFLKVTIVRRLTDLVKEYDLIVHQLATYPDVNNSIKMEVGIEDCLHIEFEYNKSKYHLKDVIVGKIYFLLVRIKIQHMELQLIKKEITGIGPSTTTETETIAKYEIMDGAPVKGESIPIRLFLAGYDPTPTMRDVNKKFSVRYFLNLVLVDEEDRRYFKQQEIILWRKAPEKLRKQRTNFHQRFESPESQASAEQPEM"}, "[2]": {"target": "retromer (Homo sapiens) (UniProt O75436)", "sequence (O75436 whole entry)": "as the sequence (O75436 whole entry, chain 2 of 2, further chain) above"}, "[3]": {"target": "VPS29 (Homo sapiens) (UniProt Q9UBQ0)"}, "[4]": {"target": "VPS29 (Homo sapiens) (UniProt Q9UBQ0)", "remark": "listed apart in the source"}}, "note": "Like-named read-outs stand apart in the source and are kept apart here.", "data": [{"substance": "DMT1-II (from UniProt P49281)", "values": [{"measurement": "Kd", "setting": "[1]", "value": 127, "unit": "µM"}]}, {"substance": "TBC1D5 (from UniProt Q92609)", "values": [{"measurement": "Kd", "setting": "[2]", "value": 0.335, "unit": "µM"}, {"measurement": "Kd", "setting": "[3]", "value": 20, "unit": "µM"}]}, {"substance": "VARP CHPLCxCxxC motif (from UniProt Q96NW4)", "values": [{"measurement": "Kd", "setting": "[4]", "value": 3.5, "unit": "µM"}]}]}
